Sequences and labels used below:
B1: Bromodomain adjacent to zinc finger domain protein 2B, residues 1927 to 1982; numbered along this chain, Q9UIF8 (parent)
chain: KSIMKVYCQICRKGDNEELLLLCDGCDKGCHTYCHRPKITTIPDGDWFCPACIAKA

± gives the uncertainty stated by the source.

The series covers variants of B1. The series is described as follows: abundance fitness (aPCA) (normalised: wild type 0, dead -1); higher = more abundant; growth selection in yeast, the domain comes from the species named. The conditions noted are these: Homo sapiens.
With KSIMKVYCQICRKGDNTELLLLCDGCDKGCHTYCHRPKITTIPDGDWFCPACIAKA [E17T], the abundance fitness is -0.069 ± 0.19.

For KSIMKVYCQICRKGDNIELLLLCDGCDKGCHTYCHRPKITTIPDGDWFCPACIAKA [E17I], the abundance fitness was -0.127 ± 0.24.

Regarding KSIMKVYCQICRKGDNDELLLLCDGCDKGCHTYCHRPKITTIPDGDWFCPACIAKA [E17D], the abundance fitness was -0.038 ± 0.2.

With KSIMKVYCQICRKGDNFELLLLCDGCDKGCHTYCHRPKITTIPDGDWFCPACIAKA [E17F], the abundance fitness is -0.363 ± 0.35.

Consider KSIMKVYCQICRKGDNGELLLLCDGCDKGCHTYCHRPKITTIPDGDWFCPACIAKA [E17G], for which the abundance fitness worked out at 0.022 ± 0.076.

KSIMKVYCQICRKGDNYELLLLCDGCDKGCHTYCHRPKITTIPDGDWFCPACIAKA [E17Y]: the abundance fitness is -0.409 ± 0.26.

On to KSIMKVYCQICRKGDNHELLLLCDGCDKGCHTYCHRPKITTIPDGDWFCPACIAKA [E17H], for which the abundance fitness was -0.34 ± 0.24.

For KSIMKVYCQICRKGDNSELLLLCDGCDKGCHTYCHRPKITTIPDGDWFCPACIAKA [E17S], the abundance fitness is -0.015 ± 0.12.

On to KSIMKVYCQICRKGDNPELLLLCDGCDKGCHTYCHRPKITTIPDGDWFCPACIAKA [E17P], for which the abundance fitness turned out to be 0.085 ± 0.2.

For KSIMKVYCQICRKGDNWELLLLCDGCDKGCHTYCHRPKITTIPDGDWFCPACIAKA [E17W], the abundance fitness is -0.092 ± 0.093.

Consider KSIMKVYCQICRKGDNQELLLLCDGCDKGCHTYCHRPKITTIPDGDWFCPACIAKA [E17Q], for which the abundance fitness was determined as 0.103 ± 0.16.

Take KSIMKVYCQICRKGDNRELLLLCDGCDKGCHTYCHRPKITTIPDGDWFCPACIAKA [E17R]: the abundance fitness stood at 0.072 ± 0.078.

On to KSIMKVYCQICRKGDNLELLLLCDGCDKGCHTYCHRPKITTIPDGDWFCPACIAKA [E17L], for which the abundance fitness was -0.008 ± 0.098.

Turning to KSIMKVYCQICRKGDNKELLLLCDGCDKGCHTYCHRPKITTIPDGDWFCPACIAKA [E17K], the abundance fitness stood at 0.172 ± 0.18.

As for KSIMKVYCQICRKGDNNELLLLCDGCDKGCHTYCHRPKITTIPDGDWFCPACIAKA [E17N], the abundance fitness was -0.139 ± 0.21.

As for KSIMKVYCQICRKGDNCELLLLCDGCDKGCHTYCHRPKITTIPDGDWFCPACIAKA [E17C], the abundance fitness amounted to 0.005 ± 0.14.

KSIMKVYCQICRKGDNMELLLLCDGCDKGCHTYCHRPKITTIPDGDWFCPACIAKA [E17M]: the abundance fitness is -0.052 ± 0.14.

For KSIMKVYCQICRKGDNEELLHLCDGCDKGCHTYCHRPKITTIPDGDWFCPACIAKA [L21H], the abundance fitness is -0.37 ± 0.15.

Turning to KSIMKVYCQICRKGDNEELLFLCDGCDKGCHTYCHRPKITTIPDGDWFCPACIAKA [L21F], the abundance fitness was -0.3 ± 0.13.

Regarding KSIMKVYCQICRKGDNEELLGLCDGCDKGCHTYCHRPKITTIPDGDWFCPACIAKA [L21G], the abundance fitness is -0.224 ± 0.083.

Take KSIMKVYCQICRKGDNEELLILCDGCDKGCHTYCHRPKITTIPDGDWFCPACIAKA [L21I]: the abundance fitness is -0.072 ± 0.15.

With KSIMKVYCQICRKGDNEELLELCDGCDKGCHTYCHRPKITTIPDGDWFCPACIAKA [L21E], the abundance fitness is -0.336 ± 0.14.

For KSIMKVYCQICRKGDNEELLMLCDGCDKGCHTYCHRPKITTIPDGDWFCPACIAKA [L21M], the abundance fitness is -0.076 ± 0.13.

For KSIMKVYCQICRKGDNEELLPLCDGCDKGCHTYCHRPKITTIPDGDWFCPACIAKA [L21P], the abundance fitness is -0.524 ± 0.12.

Take KSIMKVYCQICRKGDNEELLDLCDGCDKGCHTYCHRPKITTIPDGDWFCPACIAKA [L21D]: the abundance fitness was -0.346 ± 0.12.

Turning to KSIMKVYCQICRKGDNEELLSLCDGCDKGCHTYCHRPKITTIPDGDWFCPACIAKA [L21S], the abundance fitness is -0.2 ± 0.08.

With KSIMKVYCQICRKGDNEELLKLCDGCDKGCHTYCHRPKITTIPDGDWFCPACIAKA [L21K], the abundance fitness was -0.005 ± 0.12.

In the case of KSIMKVYCQICRKGDNEELLALCDGCDKGCHTYCHRPKITTIPDGDWFCPACIAKA [L21A], the abundance fitness is -0.117 ± 0.1.

Consider KSIMKVYCQICRKGDNEELLNLCDGCDKGCHTYCHRPKITTIPDGDWFCPACIAKA [L21N], for which the abundance fitness was -0.206 ± 0.12.

Take KSIMKVYCQICRKGDNEVLLLLCDGCDKGCHTYCHRPKITTIPDGDWFCPACIAKA [E18V]: the abundance fitness was -0.205 ± 0.086.

As to KSIMKVYCQICRKGDNETLLLLCDGCDKGCHTYCHRPKITTIPDGDWFCPACIAKA [E18T], the abundance fitness was -0.011 ± 0.1.

KSIMKVYCQICRKGDNEALLLLCDGCDKGCHTYCHRPKITTIPDGDWFCPACIAKA [E18A]: the abundance fitness is -0.011 ± 0.096.

As for KSIMKVYCQICRKGDNEHLLLLCDGCDKGCHTYCHRPKITTIPDGDWFCPACIAKA [E18H], the abundance fitness amounted to 0.042 ± 0.16.

Regarding KSIMKVYCQICRKGDNEWLLLLCDGCDKGCHTYCHRPKITTIPDGDWFCPACIAKA [E18W], the abundance fitness is -0.266 ± 0.12.

On to KSIMKVYCQICRKGDNEMLLLLCDGCDKGCHTYCHRPKITTIPDGDWFCPACIAKA [E18M], for which the abundance fitness was -0.039 ± 0.13.

For KSIMKVYCQICRKGDNEQLLLLCDGCDKGCHTYCHRPKITTIPDGDWFCPACIAKA [E18Q], the abundance fitness is -0.067 ± 0.1.

For KSIMKVYCQICRKGDNEFLLLLCDGCDKGCHTYCHRPKITTIPDGDWFCPACIAKA [E18F], the abundance fitness was -0.124 ± 0.12.

Consider KSIMKVYCQICRKGDNEYLLLLCDGCDKGCHTYCHRPKITTIPDGDWFCPACIAKA [E18Y], for which the abundance fitness was -0.188 ± 0.18.

As for KSIMKVYCQICRKGDNESLLLLCDGCDKGCHTYCHRPKITTIPDGDWFCPACIAKA [E18S], the abundance fitness was 0.01 ± 0.1.

For KSIMKVYCQICRKGDNEPLLLLCDGCDKGCHTYCHRPKITTIPDGDWFCPACIAKA [E18P], the abundance fitness is -0.183 ± 0.12.

As to KSIMKVYCQICRKGDNEKLLLLCDGCDKGCHTYCHRPKITTIPDGDWFCPACIAKA [E18K], the abundance fitness turned out to be 0.051 ± 0.16.

Regarding KSIMKVYCQICRKGDNEGLLLLCDGCDKGCHTYCHRPKITTIPDGDWFCPACIAKA [E18G], the abundance fitness is -0.046 ± 0.092.

For KSIMKVYCQICRKGDNEILLLLCDGCDKGCHTYCHRPKITTIPDGDWFCPACIAKA [E18I], the abundance fitness was -0.376 ± 0.18.

As to KSIMKVYCQICRKGDNERLLLLCDGCDKGCHTYCHRPKITTIPDGDWFCPACIAKA [E18R], the abundance fitness is -0.055 ± 0.074.

With KSIMKVYCQICRKGDNECLLLLCDGCDKGCHTYCHRPKITTIPDGDWFCPACIAKA [E18C], the abundance fitness was -0.235 ± 0.13.

Turning to KSIMKVYCQICRKGDNEELCLLCDGCDKGCHTYCHRPKITTIPDGDWFCPACIAKA [L20C], the abundance fitness was -0.011 ± 0.14.

On to KSIMKVYCQICRKGDNEELPLLCDGCDKGCHTYCHRPKITTIPDGDWFCPACIAKA [L20P], for which the abundance fitness was -0.421 ± 0.094.

Source of the values: the Human Domainome abundance scans (Beltran et al. 2025).
